This assay deals with T1, human C-C motif chemokine receptor 8 (CCR8) (human, UniProt P51685 1-355).
T1 construct: whole, on cells; also called human CCR8; hCCR8
Nature of the assay: FACS (MFI-PE) on CHO-K1 hCCR8 cells, bars at five doses. As for the experimental part:
PE Goat anti-Human IgG Fc Secondary Antibody (eBioscience™, Invitrogen) was added to each well and incubated at 4° C. for 30 mins. Samples were washed twice with FACS buffer. The mean florescence intensity (MFI) of PE was evaluated by MACSQuant Analyzer 16.

T1 sequence (P51685 whole entry): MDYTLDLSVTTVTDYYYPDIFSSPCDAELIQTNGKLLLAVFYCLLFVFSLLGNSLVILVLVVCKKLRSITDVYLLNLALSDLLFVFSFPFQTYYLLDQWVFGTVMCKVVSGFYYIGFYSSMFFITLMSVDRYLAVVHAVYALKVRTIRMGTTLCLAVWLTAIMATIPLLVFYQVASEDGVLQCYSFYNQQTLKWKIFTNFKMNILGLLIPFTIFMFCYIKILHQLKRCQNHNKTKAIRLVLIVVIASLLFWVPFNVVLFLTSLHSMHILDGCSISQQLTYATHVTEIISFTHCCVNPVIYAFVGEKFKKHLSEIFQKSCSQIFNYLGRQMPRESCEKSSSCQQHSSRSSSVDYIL

B1: Hu195H8D10-12 (antibody, V domains shown)
VH: EVQLVESGGGLVQPGGSLRLSCAASGFNFNTYVMNWVRQAPGKGLEWVARIRTKSNNYATYYADSVKDRFTISRDDSKSSLYLQMNSLKTEDTAVYYCVSGTITRLGGGLDYWGQGTLVTVSS
VL: DIVMTQSPLSLPVTPGEPASISCRSSKRLLHSNGNTYLYWFLQKPGQSPQLLIYRMSNLASGVPDRFSGSGSGTAFTLKISRVEAEDVGVYYCMQHLEYPFTFGGGTKLEIK
notes: humanized
Consider B1, for which the binding result was “binds”.

B2: Hu195H8D10-14 (antibody, V domains shown)
VH: EVQLVESGGGLVQPGGSLRLSCAASGFNFNTYVMNWVRQAPGKGLEWVARIRTKSNNYATYYADSVKDRFTISRDDSESSLYLQMNSLKTEDTAMYYCVSGTITRLGGGLDYWGQGTLVTVSS
VL: DIVMTQSPLSLPVTPGEPASISCRSSKRLLHSNGNTYLYWFLQKPGQSPQLLIYRMSNLASGVPDRFSGSGSGTDFTLKISRVEAEDVGVYYCMQHLEYPFTFGGGTKLEIK
notes: humanized
For the molecule B2, the binding result is recorded as “binds”.

B3: Hu200C9B9-10 (antibody, V domains shown)
VH: EVQLVESGGGLVQPGGSLRLSCAASGFSFNTYVMNWVRQAPGKGLNWVARIRTKSNNYATFYVDSVKDRFTISRDDSKNSLYLQMNSLKTEDTAVYYCVSGTITRLGAGLDYWGQGTLVTVSS
VL: DIVMTQSPLSLPVTPGEPASISCRSSKSLLHSNGNTYLYWFLQKPGQSPQLLIYRMSNLASGVPDRFSGSGSGTDFTLKISRVEAEDVGVYYCMQHLEYPFTFGGGTKLEIK
notes: humanized
Turning to B3, the binding result is “binds”.

B4: Hu200C9B9-11 (antibody, V domains shown)
VH: EVQLVESGGGLVQPGGSLRLSCAASGFSFNTYVMNWVRQAPGKGLNWVARIRTKSNNYATFYVDSVKDRFTISRDDSKNSLYLQMNSLKTEDTAVYYCVSGTITRLGAGLDYWGQGTLVTVSS
VL: DIVMTQSPLSLPVTPGEPASISCRSSKSLLHSNGNTYLYWYLQKPGQSPQLLIYRMSNLASGVPDRFSGSGSGTAFTLKISRVEAEDVGVYYCMQHLEYPFTFGGGTKLEIK
notes: humanized
Regarding B4, the binding result is on record as “binds”.

B5: Hu200C9B9-14 (antibody, V domains shown)
VH: EVQLVESGGGLVQPGGSLRLSCAASGFSFNTYVMNWVRQAPGKGLNWVARIRTKSNNYATFYVDSVKDRFTISRDDSENSLYLQMNSLKTEDTAVYYCVSGTITRLGAGLDYWGQGTLVTVSS
VL: DIVMTQSPLSLPVTPGEPASISCRSSKSLLHSNGNTYLYWFLQKPGQSPQLLIYRMSNLASGVPDRFSGSGSGTDFTLKISRVEAEDVGVYYCMQHLEYPFTFGGGTKLEIK
notes: humanized
Take B5: the binding result is on record as “binds”.

B6: Hu195H8D10-13 (antibody, V domains shown)
VH: EVQLVESGGGLVQPGGSLRLSCAASGFNFNTYVMNWVRQAPGKGLEWVARIRTKSNNYATYYADSVKDRFTISRDDSESSLYLQMNSLKTEDTAMYYCVSGTITRLGGGLDYWGQGTLVTVSS
VL: DIVMTQSPLSLPVTPGEPASISCRSSKRLLHSNGNTYLYWYLQKPGQSPQLLIYRMSNLASGVPDRFSGSGSGTDFTLKISRVEAEDVGVYYCMQHLEYPFTFGGGTKLEIK
notes: humanized
For B6, the binding result is on record as “binds”.

B7: Hu200C9B9-8 (antibody, V domains shown)
VH: EVQLVESGGGLVQPGGSLRLSCAASGFSFNTYVMNWVRQAPGKGLEWVARIRTKSNNYATFYVDSVKDRFTISRDDSKNSLYLQMNSLKTEDTAVYYCVSGTITRLGAGLDYWGQGTLVTVSS
VL: DIVMTQSPLSLPVTPGEPASISCRSSKSLLHSNGNTYLYWFLQKPGQSPQLLIYRMSNLASGVPDRFSGSGSGTAFTLKISRVEAEDVGVYYCMQHLEYPFTFGGGTKLEIK
notes: humanized
With B7, the binding result is reported as “binds”.

B8: Hu200C9B9-2 (antibody, V domains shown)
VH: EVQLVESGGGLVQPGGSLRLSCAASGFSFNTYVMNWVRQAPGKGLEWVGRIRTKSNNYATFYVDSVKDRFTISRDDSKNSLYLQMNSLKTEDTAVYYCARGTITRLGAGLDYWGQGTLVTVSS
VL: DIVMTQSPLSLPVTPGEPASISCRSSKSLLHSNGNTYLYWFLQKPGQSPQLLIYRMSNLASGVPDRFSGSGSGTDFTLKISRVEAEDVGVYYCMQHLEYPFTFGGGTKLEIK
notes: humanized
Consider B8, for which the binding result was “binds”.

B9: Hu200C9B9-5 (antibody, V domains shown)
VH: EVQLVESGGGLVQPGGSLRLSCAASGFSFNTYVMNWVRQAPGKGLEWVARIRTKSNNYATFYVDSVKDRFTISRDDSKNSLYLQMNSLKTEDTAVYYCVSGTITRLGAGLDYWGQGTLVTVSS
VL: DIVMTQSPLSLPVTPGEPASISCRSSKSLLHSNGNTYLYWYLQKPGQSPQLLIYRMSNLASGVPDRFSGSGSGTDFTLKISRVEAEDVGVYYCMQHLEYPFTFGGGTKLEIK
notes: humanized
For B9, the binding result is given as “binds”.

B10: Hu200C9B9-1 (antibody, V domains shown)
VH: EVQLVESGGGLVQPGGSLRLSCAASGFSFNTYVMNWVRQAPGKGLEWVGRIRTKSNNYATFYVDSVKDRFTISRDDSKNSLYLQMNSLKTEDTAVYYCARGTITRLGAGLDYWGQGTLVTVSS
VL: DIVMTQSPLSLPVTPGEPASISCRSSKSLLHSNGNTYLYWYLQKPGQSPQLLIYRMSNLASGVPDRFSGSGSGTDFTLKISRVEAEDVGVYYCMQHLEYPFTFGGGTKLEIK
notes: humanized
For the molecule B10, the binding result is listed as “binds”.

B11: Hu200C9B9-15 (antibody, V domains shown)
VH: EVQLVESGGGLVQPGGSLRLSCAASGFSFNTYVMNWVRQAPGKGLNWVARIRTKSNNYATFYVDSVKDRFTISRDDSENSLYLQMNSLKTEDTAVYYCVSGTITRLGAGLDYWGQGTLVTVSS
VL: DIVMTQSPLSLPVTPGEPASISCRSSKSLLHSNGNTYLYWYLQKPGQSPQLLIYRMSNLASGVPDRFSGSGSGTAFTLKISRVEAEDVGVYYCMQHLEYPFTFGGGTKLEIK
notes: humanized
For the molecule B11, the binding result is on record as “binds”.

B12: Hu200C9B9-12 (antibody, V domains shown)
VH: EVQLVESGGGLVQPGGSLRLSCAASGFSFNTYVMNWVRQAPGKGLNWVARIRTKSNNYATFYVDSVKDRFTISRDDSKNSLYLQMNSLKTEDTAVYYCVSGTITRLGAGLDYWGQGTLVTVSS
VL: DIVMTQSPLSLPVTPGEPASISCRSSKSLLHSNGNTYLYWFLQKPGQSPQLLIYRMSNLASGVPDRFSGSGSGTAFTLKISRVEAEDVGVYYCMQHLEYPFTFGGGTKLEIK
notes: humanized
Consider B12, for which the binding result was “binds”.

The values above are taken from US20250368744A1 (CONCEPT TO MEDICINE BIOTECH, published 2025).
